Laboratory results from the Human Domainome abundance scans (Beltran et al. 2025).
± gives the uncertainty stated by the source.

B1: Chromodomain-helicase-DNA-binding protein 4, residues 365 to 417; numbered along this chain, Q14839 (parent)
chain: YETDHQDYCEVCQQGGEIILCDTCPRAYHMVCLDPDMEKAPEGKWSCPHCEKE

Variants of: B1
Assay: abundance fitness (aPCA) (normalised: wild type 0, dead -1); higher = more abundant; growth selection in yeast, the domain comes from the species named
Conditions: Homo sapiens

Row | Variant | abundance fitness
1 | M37C | 0.34 ± 0.18
2 | M37D | -0.451 ± 0.23
3 | M37E | -0.392 ± 0.14
4 | M37F | 0.24 ± 0.15
5 | M37G | -0.199 ± 0.1
6 | M37H | -0.217 ± 0.22
7 | M37I | -0.023 ± 0.19
8 | M37K | -0.242 ± 0.24
9 | M37L | -0.059 ± 0.11
10 | M37N | 0.141 ± 0.23
11 | M37P | 0.026 ± 0.11
12 | M37Q | -0.103 ± 0.15
13 | M37R | 0.054 ± 0.095
14 | M37S | 0.079 ± 0.12
15 | M37T | -0.329 ± 0.12
16 | M37V | 0.076 ± 0.094
17 | M37W | 0.079 ± 0.12
18 | E38A | -0.261 ± 0.11
19 | E38C | -0.028 ± 0.11
20 | E38D | -0.074 ± 0.15
21 | E38F | 0.142 ± 0.18
22 | E38G | -0.056 ± 0.082
23 | E38H | -0.079 ± 0.26
24 | E38I | -0.106 ± 0.18
25 | E38K | -0.244 ± 0.18
26 | E38L | -0.197 ± 0.11

Row | Variant | abundance fitness
27 | E38M | -0.784 ± 0.21
28 | E38N | -0.183 ± 0.26
29 | E38P | -0.143 ± 0.13
30 | E38Q | -0.19 ± 0.2
31 | E38R | -0.029 ± 0.1
32 | E38S | -0.266 ± 0.11
33 | E38T | -0.657 ± 0.22
34 | E38V | -0.063 ± 0.11
35 | E38W | -0.281 ± 0.14
36 | E38Y | -0.093 ± 0.25
37 | K39A | -0.06 ± 0.14
38 | K39C | -0.347 ± 0.12
39 | K39E | -0.077 ± 0.13
40 | K39F | -0.472 ± 0.15
41 | K39G | 0.008 ± 0.096
42 | K39H | -0.237 ± 0.28
43 | K39I | -0.125 ± 0.18
44 | K39L | -0.132 ± 0.1
45 | K39M | 0.115 ± 0.16
46 | K39N | -0.264 ± 0.23
47 | K39P | -0.094 ± 0.15
48 | K39Q | -0.323 ± 0.18
49 | K39R | -0.082 ± 0.093
50 | K39S | -0.203 ± 0.1
51 | K39T | -0.217 ± 0.15
52 | K39V | 0.1 ± 0.11

Row | Variant | abundance fitness
53 | K39W | -0.172 ± 0.11
54 | K39Y | -0.077 ± 0.17
55 | A40C | -0.035 ± 0.16
56 | A40D | 0.016 ± 0.17
57 | A40E | -0.102 ± 0.16
58 | A40F | 0.015 ± 0.18
59 | A40G | -0.157 ± 0.1
60 | A40H | 0.33 ± 0.2
61 | A40I | 0.464 ± 0.2
62 | A40K | -0.043 ± 0.2
63 | A40L | 0.095 ± 0.1
64 | A40M | 0.043 ± 0.14
65 | A40N | -0.351 ± 0.27
66 | A40P | -0.209 ± 0.12
67 | A40Q | -0.208 ± 0.16
68 | A40R | -0.178 ± 0.12
69 | A40S | -0.126 ± 0.094
70 | A40T | -0.151 ± 0.14
71 | A40V | -0.093 ± 0.094
72 | A40W | -0.135 ± 0.13
73 | A40Y | -0.462 ± 0.17
74 | P41A | 0.117 ± 0.12
75 | P41C | -0.212 ± 0.14
76 | P41D | 0.022 ± 0.17
77 | P41E | 0.07 ± 0.14
78 | P41F | 0.034 ± 0.17

Row | Variant | abundance fitness
79 | P41G | 0.151 ± 0.1
80 | P41H | -0.378 ± 0.2
81 | P41I | 0.055 ± 0.17
82 | P41K | -0.015 ± 0.18
83 | P41L | -0.092 ± 0.1
84 | P41M | -0.06 ± 0.16
85 | P41N | 0.435 ± 0.23
86 | P41Q | -0.109 ± 0.18
87 | P41R | 0.123 ± 0.094
88 | P41S | -0.046 ± 0.1
89 | P41T | -0.105 ± 0.16
90 | P41V | -0.218 ± 0.12
91 | P41Y | 0.022 ± 0.19
92 | E42A | -0.178 ± 0.13
93 | E42C | -0.026 ± 0.21
94 | E42D | -0.182 ± 0.16
95 | E42F | -0.315 ± 0.22
96 | E42G | -0.114 ± 0.11
97 | E42H | -0.394 ± 0.21
98 | E42I | -0.261 ± 0.23
99 | E42K | 0.026 ± 0.18
100 | E42L | -0.087 ± 0.11
101 | E42M | -0.069 ± 0.15
102 | E42P | 0.052 ± 0.18
103 | E42Q | -0.012 ± 0.17
104 | E42S | -0.129 ± 0.13

Row | Variant | abundance fitness
105 | E42T | 0.066 ± 0.17
106 | E42V | 0.066 ± 0.11
107 | E42W | -0.49 ± 0.14
108 | E42Y | -0.17 ± 0.27
109 | G43A | 0.061 ± 0.12
110 | G43C | -0.217 ± 0.15
111 | G43D | -0.164 ± 0.19
112 | G43E | 0.179 ± 0.15
113 | G43F | -0.35 ± 0.18
114 | G43H | -0.505 ± 0.26
115 | G43I | -0.382 ± 0.22
116 | G43K | -0.012 ± 0.2
117 | G43L | -0.232 ± 0.099
118 | G43M | -0.151 ± 0.14
119 | G43N | -0.076 ± 0.21
120 | G43P | -0.209 ± 0.15
121 | G43Q | -0.078 ± 0.15
122 | G43R | -0.09 ± 0.086
123 | G43S | -0.099 ± 0.12
124 | G43T | -0.272 ± 0.15
125 | G43V | -0.375 ± 0.12
126 | G43W | -0.164 ± 0.11
127 | K44A | -0.017 ± 0.15
128 | K44C | -0.152 ± 0.14
129 | K44E | 0.079 ± 0.14
130 | K44F | -0.028 ± 0.16

Row | Variant | abundance fitness
131 | K44G | 0.164 ± 0.095
132 | K44H | -0.3 ± 0.21
133 | K44I | -0.427 ± 0.3
134 | K44L | -0.145 ± 0.1
135 | K44M | -0.066 ± 0.12
136 | K44N | -0.373 ± 0.29
137 | K44P | 0.062 ± 0.14
138 | K44Q | 0.309 ± 0.13
139 | K44R | 0.05 ± 0.097
140 | K44S | 0.102 ± 0.11
141 | K44T | 0.218 ± 0.15
142 | K44V | -0.109 ± 0.11
143 | K44W | 0.098 ± 0.12
144 | K44Y | -0.31 ± 0.18
145 | W45A | 0.005 ± 0.13
146 | W45C | -0.101 ± 0.13
147 | W45D | -0.313 ± 0.2
148 | W45E | 0.083 ± 0.16
149 | W45F | -0.159 ± 0.15
150 | W45G | 0.025 ± 0.085
151 | W45H | -0.119 ± 0.21
152 | W45I | 0.057 ± 0.19
153 | W45K | -0.483 ± 0.27
